Where two headings read alike, the source gives them in different places. One block for each substance: values may come before it.
Key:
[1] = target: C5a receptor C5aR (CD88) on human blood neutrophils (human) (UniProt P21730); assay: cell-based or functional assay
[2] = target: C5a receptor C5aR (CD88) on human blood neutrophils (human) (UniProt P21730); assay: cell-based or functional assay; remark: listed apart in the source
[3] = target: recombinant human C5a (rhC5a) (human) (UniProt P01031)
Sequence of recombinant human C5a (rhC5a) (human) (P01031 678-751 limits assumed): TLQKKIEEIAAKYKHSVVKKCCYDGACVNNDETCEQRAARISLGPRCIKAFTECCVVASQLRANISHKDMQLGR

Sequence of C5a receptor C5aR (CD88) on human blood neutrophils (human) (P21730 whole entry): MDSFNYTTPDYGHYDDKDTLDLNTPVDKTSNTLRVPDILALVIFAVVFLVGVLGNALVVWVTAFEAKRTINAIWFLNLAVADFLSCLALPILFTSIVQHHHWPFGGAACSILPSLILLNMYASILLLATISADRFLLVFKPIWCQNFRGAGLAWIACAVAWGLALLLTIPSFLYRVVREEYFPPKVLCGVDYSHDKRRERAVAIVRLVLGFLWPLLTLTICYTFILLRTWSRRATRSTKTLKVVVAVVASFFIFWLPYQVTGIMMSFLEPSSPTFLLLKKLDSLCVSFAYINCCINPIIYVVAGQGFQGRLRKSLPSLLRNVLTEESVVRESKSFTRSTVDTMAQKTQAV

Substance: anti-C5aR (CD88) antibody Clone 7H110
Blocking activity (%) on CD11b upregulation; Pat. 088 | Clone 7H110 (50 nM) [1]: 75.7%
Blocking activity (%) on CD11b upregulation; Pat. 092 | Clone 7H110 (50 nM) [1]: 78.7%
Blocking activity (%) on CD11b upregulation; huPP | rhC5a | Clone 7H110 (50 nM) [1]: 70.7%
CD11b (mean MFI) on neutrophils; Pat. 088 | Clone 7H110 (50 nM) [1]: 3560 MFI
CD11b (mean MFI) on neutrophils; Pat. 092 | Clone 7H110 (50 nM) [1]: 3390 MFI
CD11b (mean MFI) on neutrophils; huPP | rhC5a | Clone 7H110 (50 nM) [1]: 3380 MFI

Substance: recombinant human C5a (rhC5a) (from UniProt P01031 678-751) (ligand)
CD11b (mean MFI) on neutrophils; huPP | rhC5a (20 nM) [1]: 6330 MFI
CD11b (mean MFI) on neutrophils; huPP | rhC5a (20 nM) [2]: 8330 MFI

More lines, now with the values ahead:

Blocking activity (%) on CD11b upregulation; Pat. 088 | PMX 53 (50 nM) [1]: 55.5%
Blocking activity (%) on CD11b upregulation; Pat. 092 | PMX 53 (50 nM) [1]: 56.7%
Blocking activity (%) on CD11b upregulation; huPP | rhC5a | PMX 53 (50 nM) [1]: 50.3%
CD11b (mean MFI) on neutrophils; Pat. 088 | PMX 53 (50 nM) [1]: 4730 MFI
CD11b (mean MFI) on neutrophils; Pat. 092 | PMX 53 (50 nM) [1]: 4660 MFI
CD11b (mean MFI) on neutrophils; huPP | rhC5a | PMX 53 (50 nM) [1]: 4240 MFI
Blocking activity (%) on CD11b upregulation; Pat. 088 | PMX 53 (20 µM) [2]: 104%
Blocking activity (%) on CD11b upregulation; Pat. 092 | PMX 53 (20 µM) [2]: 109%
Blocking activity (%) on CD11b upregulation; huPP | rhC5a | PMX 53 (20 µM) [2]: 108%
CD11b (mean MFI) on neutrophils; Pat. 088 | PMX 53 (20 µM) [2]: 2030 MFI
CD11b (mean MFI) on neutrophils; Pat. 092 | PMX 53 (20 µM) [2]: 1910 MFI
CD11b (mean MFI) on neutrophils; huPP | rhC5a | PMX 53 (20 µM) [2]: 1850 MFI
Substance: PMX-53 (peptide)

Blocking activity (%) on CD11b upregulation; Pat. 088 | Clone S5/1 (50 nM) [1]: 72.7%
Blocking activity (%) on CD11b upregulation; Pat. 092 | Clone S5/1 (50 nM) [1]: 75.9%
Blocking activity (%) on CD11b upregulation; huPP | rhC5a | Clone S5/1 (50 nM) [1]: 73%
CD11b (mean MFI) on neutrophils; Pat. 088 | Clone S5/1 (50 nM) [1]: 3740 MFI
CD11b (mean MFI) on neutrophils; Pat. 092 | Clone S5/1 (50 nM) [1]: 3560 MFI
CD11b (mean MFI) on neutrophils; huPP | rhC5a | Clone S5/1 (50 nM) [1]: 3290 MFI
Substance: anti-C5aR (CD88) antibody Clone S5/1

blocking activity (%) of rhC5a-induced CD11b upregulation on neutrophils, human whole blood, flow cytometry; bar 'IgG4 control : rhC5a = 1:1' against rhC5a (16.7 nM) alone [3]: 7%
Substance: irrelevant human IgG4 antibody
